In assay [1] the target is HLA-A*68:23. Description: IEDB peptide-MHC binding, purified MHC/competitive/fluorescence; filed as Kd, often an IC50 or EC50 that approximates it; ≥ and ≤ were set here for values at or beyond the usual limits of such assays. The settings on record: source organism: Homo sapiens.
For assay [2], the target named is HLA-B*15:42. The assay is described as above. The conditions noted are these: source organism: Homo sapiens.
Assay [3] addresses HLA-B*45:06. The assay is described as above. The settings on record: source organism: Homo sapiens.
Assay [4] deals with HLA-B*83:01. The assay is described as above. The conditions noted are these: source organism: Homo sapiens.
Assay [5] has as its target HLA-A*02:01. Described as above. The settings on record: source organism: Vibrio vulnificus YJ016.
For assay [6], the target named is HLA-A*02:03. The assay is described as above. The conditions noted are these: source organism: Vibrio vulnificus YJ016.
The target of assay [7] is HLA-A*02:12. The assay is described as above. The settings on record: source organism: Vibrio vulnificus YJ016.
Assay [8] concerns the target HLA-A*02:19. The assay is described as above. The conditions noted are these: source organism: Vibrio vulnificus YJ016.
Assay [9] deals with HLA-A*03:01. The description is as above. The conditions noted are these: source organism: Vibrio vulnificus YJ016.
Assay [10] concerns the target HLA-A*23:01. The description is as above. The conditions noted are these: source organism: Vibrio vulnificus YJ016.
Assay [11] concerns the target HLA-A*24:03. Described as above. The conditions noted are these: source organism: Vibrio vulnificus YJ016.
In assay [12] the target is HLA-A*26:01. The description is as above. The conditions noted are these: source organism: Vibrio vulnificus YJ016.
Assay [13] concerns the target HLA-A*29:02. The assay is described as above. The conditions noted are these: source organism: Vibrio vulnificus YJ016.
The target in assay [14] is HLA-B*15:01. The assay is described as above. The settings on record: source organism: Vibrio vulnificus YJ016.
Assay [15] has as its target HLA-B*18:01. Described as above. The settings on record: source organism: Vibrio vulnificus YJ016.
The target of assay [16] is HLA-B*27:03. The assay is described as above. The settings on record: source organism: Vibrio vulnificus YJ016.
Assay [17] addresses HLA-B*39:01. Described as above. The conditions noted are these: source organism: Vibrio vulnificus YJ016.
Assay [18] addresses HLA-B*46:01. The description is as above. The conditions noted are these: source organism: Vibrio vulnificus YJ016.
Assay [19] has as its target HLA-B*51:01. The description is as above. The conditions noted are these: source organism: Vibrio vulnificus YJ016.
Assay [20] concerns the target HLA-B*57:01. Described as above. The conditions noted are these: source organism: Vibrio vulnificus YJ016.
The target in assay [21] is HLA-A*01:01. Description: IEDB peptide-MHC binding, purified MHC/direct/fluorescence; filed as Kd, often an IC50 or EC50 that approximates it; ≥ and ≤ were set here for values at or beyond the usual limits of such assays. The conditions noted are these: source organism: Giardia lamblia ATCC 50803.
Assay [22] has as its target HLA-A*02:01. The assay is described as above. The settings on record: source organism: Giardia lamblia ATCC 50803.
In assay [23] the target is HLA-A*11:01. Described as above. The conditions noted are these: source organism: Giardia lamblia ATCC 50803.
The target in assay [24] is HLA-A*26:02. Described as above. The settings on record: source organism: Giardia lamblia ATCC 50803.
Assay [25] concerns the target HLA-A*26:03. The description is as above. The conditions noted are these: source organism: Giardia lamblia ATCC 50803.
Assay [26] addresses HLA-A*31:01. Described as above. The settings on record: source organism: Giardia lamblia ATCC 50803.
For assay [27], the target named is HLA-A*68:02. Described as above. The settings on record: source organism: Giardia lamblia ATCC 50803.
Assay [28] addresses HLA-A*69:01. The description is as above. The settings on record: source organism: Giardia lamblia ATCC 50803.
In assay [29] the target is HLA-B*07:02. The description is as above. The conditions noted are these: source organism: Giardia lamblia ATCC 50803.
For assay [30], the target named is HLA-B*08:01. Described as above. The conditions noted are these: source organism: Giardia lamblia ATCC 50803.
The target in assay [31] is HLA-B*08:02. The description is as above. The settings on record: source organism: Giardia lamblia ATCC 50803.
The target in assay [32] is HLA-B*08:03. The description is as above. The settings on record: source organism: Giardia lamblia ATCC 50803.
Assay [33] addresses HLA-B*15:17. The assay is described as above. The conditions noted are these: source organism: Giardia lamblia ATCC 50803.
For assay [34], the target named is HLA-B*18:01. The assay is described as above. The conditions noted are these: source organism: Giardia lamblia ATCC 50803.
Assay [35] deals with HLA-B*27:05. The description is as above. The settings on record: source organism: Giardia lamblia ATCC 50803.
In assay [36] the target is HLA-B*39:01. The assay is described as above. The conditions noted are these: source organism: Giardia lamblia ATCC 50803.
Assay [37] has as its target HLA-B*40:01. Described as above. The conditions noted are these: source organism: Giardia lamblia ATCC 50803.
The target of assay [38] is HLA-B*48:01. The assay is described as above. The settings on record: source organism: Giardia lamblia ATCC 50803.
For assay [39], the target named is HLA-B*57:01. The assay is described as above. The conditions noted are these: source organism: Giardia lamblia ATCC 50803.
In assay [40] the target is HLA-B*58:01. The assay is described as above. The settings on record: source organism: Giardia lamblia ATCC 50803.
The target in assay [41] is HLA-B*53:01. Description: IEDB peptide-MHC binding, purified MHC/competitive/fluorescence; ≥ and ≤ were set here for values at or beyond the usual limits of such assays. The conditions noted are these: source organism: Human herpesvirus 4 type 2.

The results in this text go back to the Immune Epitope Database (IEDB).

In the case of KGPPAALTL, the Kd (usually the concentration at which binding is half-saturated) was 0.946 µM in assay [1], at least 5 µM in assay [2], at least 5 µM in [3] and 5.27 µM in assay [4].

As for LTDEQKNAV, the Kd was at least 20 µM in [5]; at least 20 µM in [6]; 0.856 µM in assay [7]; at least 20 µM in assay [8]; at least 20 µM in [9]; at least 20 µM in assay [10]. Moreover, the Kd in [11], in assay [12], in assay [13], in assay [14], in assay [15] and in assay [16] was at least 20 µM in each case. Besides, the dissociation constant (Kd) in assay [17], in [18], in assay [19] and in assay [20] was at least 20 µM throughout.

For RENQVAVVR, the Kd in assay [21], in assay [22], in assay [23], in assay [24], in [25] and in assay [26] was at least 20 µM throughout. For the same sequence, the dissociation constant Kd in assay [27], in [28], in assay [29], in [30], in [31] and in [32] was at least 20 µM throughout. In addition, the Kd in assay [33], in assay [34], in [35], in [36], in assay [37] and in assay [38] was at least 20 µM in each case. Also, the Kd in assay [39] and in assay [40] was at least 20 µM throughout.

On to TAYCPLQHW, for which the concentration for half-maximal inhibition (IC50) – broadly, the concentration that gives 50% inhibition – in assay [41] is 0.0326 µM.
